Measurements: US20100041597A1 (published 2010)
Values belong to the binder of their own block, whether it stands above or below them.

Columns and labels:
[1] = target: T1, PKC-βII (purified isoform) (Homo sapiens (Human), UniProt P05771 2-621); test: summary grade, purified isoform ELISA
T1 construct: also called PKC-beta II

[2] = target: T2, PKC-βI (purified isoform) (Homo sapiens (Human), UniProt P05771 2-671); test: summary grade, purified isoform ELISA
T2 construct: also called PKC-beta I

PKC-ε (purified isoform) = target: T3, PKC-ε (purified isoform) (Homo sapiens (Human), UniProt Q02156 1-737); test: summary grade, purified isoform ELISA
T3 construct: also called PKC-epsilon; PKCepsilon
T3 sequence: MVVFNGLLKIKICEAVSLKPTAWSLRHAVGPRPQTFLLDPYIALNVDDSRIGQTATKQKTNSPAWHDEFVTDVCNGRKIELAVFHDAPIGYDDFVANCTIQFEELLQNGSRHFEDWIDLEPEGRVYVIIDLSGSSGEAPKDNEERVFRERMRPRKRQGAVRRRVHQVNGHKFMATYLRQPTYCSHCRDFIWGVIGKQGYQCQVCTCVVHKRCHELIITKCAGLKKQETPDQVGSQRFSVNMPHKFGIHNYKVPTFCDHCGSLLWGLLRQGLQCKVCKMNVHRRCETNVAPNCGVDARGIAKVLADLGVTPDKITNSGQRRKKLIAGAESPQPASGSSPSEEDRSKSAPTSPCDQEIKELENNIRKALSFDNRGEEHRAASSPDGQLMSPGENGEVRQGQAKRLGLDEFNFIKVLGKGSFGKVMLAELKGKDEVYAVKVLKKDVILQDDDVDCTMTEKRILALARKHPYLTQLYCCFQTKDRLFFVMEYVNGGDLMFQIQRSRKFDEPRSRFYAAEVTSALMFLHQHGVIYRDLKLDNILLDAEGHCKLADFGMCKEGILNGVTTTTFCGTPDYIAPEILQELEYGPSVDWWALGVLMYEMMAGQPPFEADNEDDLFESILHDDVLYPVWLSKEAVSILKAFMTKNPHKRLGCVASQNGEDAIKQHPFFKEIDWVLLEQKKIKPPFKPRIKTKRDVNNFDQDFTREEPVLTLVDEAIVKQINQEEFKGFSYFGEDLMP

[3] = target: T4, PKC-ε (endogenous, human cell extracts) (human, UniProt Q02156 1-737); test: Protocol B blot competition, IMR-32 extract, competitor anti-PKC-ε Ab, Band 1; PRE 20 µg
T4 construct: Two bands on the blot, said to be alternate splicing variants; also called PKC-epsilon; PKC-ε Band 1
T4 sequence (looked up): T3 sequence
Protocol: (§1) The ability of the peptides PRE 2 and PRE 3 (see Table 3) to interfere with the binding of a PKC-α-specific polyclonal antibody (Santa Cruz Biotechnology, Inc.) to PKC-α was determined using a modified version of the protocol outlined above in which the test peptide was added directly to the cell extract prior to electrophoresis at a concentration of either 5× or 15× the concentration of the protein applied to each well of the gel for the Western blots (20 μg).
(§2) Peptides PRE 2, PRE 3 and PRE 4 (see Table 3) were tested for their ability to interfere with the binding of isoform-specific polyclonal antibodies (Santa Cruz Biotechnology, Inc.) to PKC-ε using the general protocol described in Example 3. Two bands, representing alternate splicing variants of PKC-ε, were identified on the Western blot using this anti-PKC-ε antibody.

[4] = target: T4, PKC-ε (endogenous, human cell extracts); test: Protocol B blot competition, IMR-32 extract, competitor anti-PKC-ε Ab, Band 2; PRE 20 µg
Protocol: as §1, §2

[5] = target: T4, PKC-ε (endogenous, human cell extracts); test: Protocol B blot competition, IMR-32 extract, competitor anti-PKC-ε Ab, Band 2; PRE 50 µg
Protocol: as §1, §2

[6] = target: T4, PKC-ε (endogenous, human cell extracts); test: Protocol B blot competition, IMR-32 extract, competitor anti-PKC-ε Ab, Band 1; PRE 100 µg
Protocol: as §1, §2

[7] = target: T4, PKC-ε (endogenous, human cell extracts); test: Protocol B blot competition, IMR-32 extract, competitor anti-PKC-ε Ab, Band 2; PRE 100 µg
Protocol: as §1, §2

T1 sequence (P05771 other isoform, or with tags, fused parts or gaps limits assumed): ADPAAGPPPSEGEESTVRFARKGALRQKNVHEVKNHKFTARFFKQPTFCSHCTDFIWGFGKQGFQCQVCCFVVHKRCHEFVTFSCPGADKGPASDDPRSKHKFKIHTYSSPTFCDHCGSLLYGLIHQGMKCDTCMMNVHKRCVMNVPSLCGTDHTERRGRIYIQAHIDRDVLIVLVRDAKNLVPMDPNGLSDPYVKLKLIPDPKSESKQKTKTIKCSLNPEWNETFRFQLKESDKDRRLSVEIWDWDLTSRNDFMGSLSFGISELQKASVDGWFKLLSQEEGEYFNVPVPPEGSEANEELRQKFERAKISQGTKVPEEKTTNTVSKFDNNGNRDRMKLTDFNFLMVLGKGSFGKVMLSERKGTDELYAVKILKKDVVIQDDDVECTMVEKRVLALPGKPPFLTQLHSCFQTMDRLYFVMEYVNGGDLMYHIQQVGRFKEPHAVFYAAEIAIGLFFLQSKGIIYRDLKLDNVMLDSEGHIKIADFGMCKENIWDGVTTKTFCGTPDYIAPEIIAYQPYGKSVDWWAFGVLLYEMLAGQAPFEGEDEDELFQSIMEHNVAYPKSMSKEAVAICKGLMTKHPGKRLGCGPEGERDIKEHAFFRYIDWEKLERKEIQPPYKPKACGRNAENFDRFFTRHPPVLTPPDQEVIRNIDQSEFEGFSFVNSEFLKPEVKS
T2 sequence (P05771 2-671 limits assumed): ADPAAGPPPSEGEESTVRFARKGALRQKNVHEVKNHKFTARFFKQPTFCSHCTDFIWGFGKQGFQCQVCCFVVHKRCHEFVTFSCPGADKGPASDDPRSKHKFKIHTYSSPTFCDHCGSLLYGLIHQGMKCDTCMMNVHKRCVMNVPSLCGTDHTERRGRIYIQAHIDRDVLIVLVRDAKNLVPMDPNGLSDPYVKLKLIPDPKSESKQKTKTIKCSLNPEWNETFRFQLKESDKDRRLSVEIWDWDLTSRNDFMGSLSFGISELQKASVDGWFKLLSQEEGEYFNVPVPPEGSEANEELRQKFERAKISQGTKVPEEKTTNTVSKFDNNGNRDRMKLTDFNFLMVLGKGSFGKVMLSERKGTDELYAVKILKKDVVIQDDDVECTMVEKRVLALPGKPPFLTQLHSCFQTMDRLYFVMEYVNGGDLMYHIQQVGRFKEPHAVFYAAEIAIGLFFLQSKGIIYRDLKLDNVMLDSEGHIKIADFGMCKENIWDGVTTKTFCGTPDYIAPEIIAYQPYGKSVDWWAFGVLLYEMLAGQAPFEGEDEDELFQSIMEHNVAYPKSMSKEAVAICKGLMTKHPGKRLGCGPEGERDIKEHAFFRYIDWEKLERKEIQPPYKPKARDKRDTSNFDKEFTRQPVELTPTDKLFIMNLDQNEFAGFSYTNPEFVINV

binding result [1]: no binding (tested: 200 µM)
B1: PRE 6 (peptide)
peptide: Ac-KDANQLIGISI-NH2
notes: Synthetic peptide; also called peptide PRE 6

binding result [2]: no binding (tested: 200 µM)
binding result [1]: no binding (tested: 200 µM)
binding result (PKC-ε (purified isoform)): no binding (tested: 200 µM)
B3: PRE 13 (peptide)
peptide: Ac-RDAQNLI-NH2
notes: Synthetic peptide; also called peptide PRE 13; Ac-RDAQNLI-NH2

band intensity [3]: 184
inhibition (%) [3]: 42.9%
relative intensity (%) [3]: 57.1%
band intensity [4]: 153
inhibition (%) [4]: 46.6%
relative intensity (%) [4]: 53.3%
band intensity [5]: 0
inhibition (%) [5]: 100%
relative intensity (%) [5]: 0%
band intensity [6]: 0
inhibition (%) [6]: 100%
relative intensity (%) [6]: 0%
band intensity [7]: 0
inhibition (%) [7]: 100%
relative intensity (%) [7]: 0%
B4: PRE 4 (peptide)
peptide: Ac-KDAQNLIGISI-NH2
notes: Synthetic peptide; also called peptide PRE 4

Continued, binder first:

B2: PRE 12 (peptide)
peptide: Ac-KDAQNLI-NH2
notes: Synthetic peptide; also called peptide PRE 12; Ac-KDAQNLI-NH2
binding result [2]: no binding (tested: 200 µM)
binding result (PKC-ε (purified isoform)): no binding (tested: 200 µM)

B5: PRE 3 (peptide)
peptide: Ac-AKGIQEVKGGDAQNLIGISI-NH2
notes: Synthetic peptide; also called peptide PRE 3
band intensity [3]: 5.12
inhibition (%) [3]: 99%
relative intensity (%) [3]: 0.12%
band intensity [4]: 0
inhibition (%) [4]: 100%
relative intensity (%) [4]: 0%
band intensity [5]: 0
inhibition (%) [5]: 100%
relative intensity (%) [5]: 0%
band intensity [6]: 0
inhibition (%) [6]: 100%
relative intensity (%) [6]: 0%
band intensity [7]: 0
inhibition (%) [7]: 100%
relative intensity (%) [7]: 0%
